Columns and labels:
[1] = target: subtilisin-treated unmodified human microtubules missing their β-tubulin tails (human (endogenous in tsA201), UniProt P68363 1-451; P07437 1-444); experiment: TIRF microscopy binding assay
[2] = target: microtubules assembled from porcine brain tubulin (porcine, UniProt P02550 1-451; P02554 1-445); experiment: co-sedimentation
microtubules assembled from porcine brain tubulin, sequence (P02550 whole entry, chain 1 of 2): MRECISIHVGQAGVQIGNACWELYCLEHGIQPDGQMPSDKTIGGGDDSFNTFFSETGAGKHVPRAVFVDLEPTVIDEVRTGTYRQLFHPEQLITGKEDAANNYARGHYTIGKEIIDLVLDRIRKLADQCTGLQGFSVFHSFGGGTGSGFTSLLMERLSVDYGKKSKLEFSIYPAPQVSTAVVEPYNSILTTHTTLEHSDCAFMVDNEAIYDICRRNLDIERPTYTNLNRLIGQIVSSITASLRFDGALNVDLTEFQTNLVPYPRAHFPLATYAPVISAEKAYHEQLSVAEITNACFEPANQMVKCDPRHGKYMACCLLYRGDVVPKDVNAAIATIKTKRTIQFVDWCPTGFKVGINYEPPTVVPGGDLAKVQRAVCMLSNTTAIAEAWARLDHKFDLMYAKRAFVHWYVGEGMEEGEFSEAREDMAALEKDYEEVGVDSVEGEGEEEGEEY
microtubules assembled from porcine brain tubulin, sequence (P02554 whole entry, chain 2 of 2): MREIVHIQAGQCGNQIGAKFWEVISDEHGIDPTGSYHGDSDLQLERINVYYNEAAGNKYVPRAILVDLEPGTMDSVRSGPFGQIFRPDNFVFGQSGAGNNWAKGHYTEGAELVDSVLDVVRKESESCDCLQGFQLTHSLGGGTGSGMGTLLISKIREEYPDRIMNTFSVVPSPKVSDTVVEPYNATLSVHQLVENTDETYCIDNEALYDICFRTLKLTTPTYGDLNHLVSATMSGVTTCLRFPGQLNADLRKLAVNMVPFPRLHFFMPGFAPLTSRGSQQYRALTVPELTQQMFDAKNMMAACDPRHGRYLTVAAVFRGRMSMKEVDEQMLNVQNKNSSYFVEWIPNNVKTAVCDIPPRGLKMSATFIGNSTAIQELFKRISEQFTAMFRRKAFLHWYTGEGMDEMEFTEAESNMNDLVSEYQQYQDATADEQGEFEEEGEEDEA

subtilisin-treated unmodified human microtubules missing their β-tubulin tails, sequence (P68363 whole entry, chain 1 of 2): as the sequence (P02550 whole entry, chain 1 of 2) above, with S136L, G232S, A265I, T340S, E358Q counted along it
subtilisin-treated unmodified human microtubules missing their β-tubulin tails, sequence (P07437 1-427, chain 2 of 2): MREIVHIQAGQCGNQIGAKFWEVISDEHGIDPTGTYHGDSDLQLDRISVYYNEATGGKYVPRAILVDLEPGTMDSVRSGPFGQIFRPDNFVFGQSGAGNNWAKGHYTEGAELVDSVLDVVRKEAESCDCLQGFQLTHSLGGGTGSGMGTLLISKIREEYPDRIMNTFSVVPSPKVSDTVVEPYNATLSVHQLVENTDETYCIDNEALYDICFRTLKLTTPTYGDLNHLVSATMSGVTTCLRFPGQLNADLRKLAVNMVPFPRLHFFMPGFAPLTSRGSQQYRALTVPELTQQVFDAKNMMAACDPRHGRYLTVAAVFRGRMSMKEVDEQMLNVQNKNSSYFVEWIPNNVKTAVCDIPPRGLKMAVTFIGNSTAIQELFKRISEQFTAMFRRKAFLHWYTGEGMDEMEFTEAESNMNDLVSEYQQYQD

B1: Atto488-labeled TTLL6 (enzyme, Mus musculus, UniProt A4Q9E8 51-502, looked up)
chain: GKKKRKKKRLVINLSNCRYDSVRRAAQQYGLREAGDNDDWTLYWTDYSVSLERVMEMKSYQKINHFPGMSEICRKDLLARNMSRMLKLFPKDFHFFPRTWCLPADWGDLQTYSRTRKNKTYICKPDSGCQGRGIFITRSVKEIKPGEDMICQLYISKPFIIDGFKFDLRVYVLVTSCDPLRVFVYNEGLARFATTSYSHPNLDNLDEICMHLTNYSINKHSSNFVQDAFSGSKRKLSTFNSYMKTHGYDVEQIWRGIEDVIIKTLISAHPVIKHNYHTCFPSHTLNSACFEILGFDILLDRKLKPWLLEVNHSPSFSTDSKLDKEVKDSLLYDALVLINLGNCDKKKVLEEERQRGRFLQQCPNREIRLEEVKGFQAMRLQKTEEYEKKNCGGFRLIYPGLNLEKYDKFFQDNSSLFQNTVASRARELYARQLIQELRQKQEKKVFLKKARK
modifications: Atto488 on the N-terminus, through the synthetic peptide NH2-(Atto488)-LPETGGGG ligated with sortase
Question: B1 was tested. Which “fold decrease in recruitment against MTs with intact β-tails” value [1] did it give?
Answer: ~18 fold

Question: How did the Kd [2] turn out when FQDNSSLFQNTVASRARELYARQLIQELRQKQEKKVFLKKARK (domain or fragment, Mus musculus, UniProt A4Q9E8 460-502, looked up) [TTLL6 MTBH1-2 (460–502)] was run?
Answer: 3.7 µM

From PMC11529724 (Nature chemical biology, 2024)
